This note sets out measurements from US9814672B2, “Echogenic vehicle for clinical delivery of plasminogen activator and other fibrin-binding therapeutics to thrombi” (priority 2007, dated 2017).

Like-named read-outs stand apart in the source and are kept apart here.

For the assay, the target named is T1, fibrin (Homo sapiens, UniProt P02671+P02675+P02679).
T1 construct: purchased Calbiochem (EMD Biosciences, Inc., La Jolla, Calif.)
T1 sequence (P02671 36-629 limits assumed): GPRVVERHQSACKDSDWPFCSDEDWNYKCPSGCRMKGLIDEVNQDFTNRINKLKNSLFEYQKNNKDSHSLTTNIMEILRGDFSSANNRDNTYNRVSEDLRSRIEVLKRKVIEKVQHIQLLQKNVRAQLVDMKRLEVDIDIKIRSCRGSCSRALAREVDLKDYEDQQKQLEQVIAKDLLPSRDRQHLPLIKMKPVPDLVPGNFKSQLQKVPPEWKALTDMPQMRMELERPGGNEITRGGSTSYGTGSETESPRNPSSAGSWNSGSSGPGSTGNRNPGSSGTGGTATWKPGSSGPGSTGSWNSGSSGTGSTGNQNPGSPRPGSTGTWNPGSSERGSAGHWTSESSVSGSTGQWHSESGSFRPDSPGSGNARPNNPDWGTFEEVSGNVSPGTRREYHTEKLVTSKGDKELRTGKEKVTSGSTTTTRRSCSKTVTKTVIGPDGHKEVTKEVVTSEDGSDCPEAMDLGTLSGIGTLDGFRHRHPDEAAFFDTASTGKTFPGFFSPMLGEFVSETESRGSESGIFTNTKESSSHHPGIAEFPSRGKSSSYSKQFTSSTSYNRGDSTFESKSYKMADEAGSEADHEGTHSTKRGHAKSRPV
T1 sequence (P02675 45-491 limits assumed): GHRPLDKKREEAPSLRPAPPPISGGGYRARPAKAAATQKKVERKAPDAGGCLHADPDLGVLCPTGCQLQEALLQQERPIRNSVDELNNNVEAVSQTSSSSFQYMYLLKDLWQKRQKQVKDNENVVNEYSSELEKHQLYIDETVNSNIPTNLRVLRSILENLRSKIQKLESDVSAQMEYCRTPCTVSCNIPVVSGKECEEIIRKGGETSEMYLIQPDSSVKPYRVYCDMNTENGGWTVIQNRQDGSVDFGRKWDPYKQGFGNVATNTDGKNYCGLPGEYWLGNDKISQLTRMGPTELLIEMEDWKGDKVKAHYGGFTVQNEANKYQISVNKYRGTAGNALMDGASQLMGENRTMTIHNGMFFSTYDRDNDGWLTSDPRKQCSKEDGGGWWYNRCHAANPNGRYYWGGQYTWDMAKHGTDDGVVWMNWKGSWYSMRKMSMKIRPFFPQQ
T1 sequence (P02679 27-437 isoform P02679-2 limits assumed): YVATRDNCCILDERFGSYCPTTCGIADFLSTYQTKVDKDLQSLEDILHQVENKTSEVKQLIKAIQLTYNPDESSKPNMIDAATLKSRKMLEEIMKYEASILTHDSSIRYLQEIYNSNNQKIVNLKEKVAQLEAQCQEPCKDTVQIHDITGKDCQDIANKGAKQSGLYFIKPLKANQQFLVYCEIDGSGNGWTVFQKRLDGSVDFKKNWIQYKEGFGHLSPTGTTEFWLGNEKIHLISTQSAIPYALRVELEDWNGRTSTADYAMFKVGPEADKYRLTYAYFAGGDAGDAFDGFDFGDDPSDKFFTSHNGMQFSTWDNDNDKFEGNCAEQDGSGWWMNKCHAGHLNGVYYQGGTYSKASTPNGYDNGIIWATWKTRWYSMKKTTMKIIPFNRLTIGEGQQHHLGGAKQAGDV
Nature of the assay: Two-stage fibrin pad ELISA, Scatchard and van't Hoff analysis. The format is binding. Conditions: for ΔH°: van't Hoff plot. How it is done:
Added 100 μl 0.2% BSA/PBS to each well and incubated at 37° C. for 1 hour. All subsequent incubations were also at 37° C. Aspirated the wells and washed the plate 3× with PBS-T. Added Activase dilutions (10, 5, 2.5, 1.25, and 0.625 μg/ml PBS-T) to replicate wells ([…]). Incubated for 2 hours. Removed the contents of each well and pooled all samples within each dilution. Stored pooled samples at 4° C. For tPA-ELIP dilutions (in PBS), the third wash before adding the samples was with PBS. Stored the pooled tPA-ELIP samples in polypropylene tubes.
Added monoclonal anti-tPA capture antibody (Ab) (5 μg/ml coating buffer; […]) to rows B, C, E and G of a fresh microplate. Incubated in a humidified chamber at 4° C. overnight. All subsequent incubations were in humidified chambers at 37° C. at volumes of 50 μl/well, followed by aspiration of wells and 3× washes with PBS-T. Blocked all rows with conjugate buffer for 1 hour. Added tPA standards (50, 25, 12.5, 6.25 and 3.13 ng/ml) and pooled sample dilutions (in PBS-T) in duplicate to sample (B, C, E, G) and background (A, D, F, H) wells. Incubated for 2 hours. Added secondary detection Ab (10 μg sheep anti-tPA/ml 0.1% BSA in PBS-T) to all wells and incubated 1 hour, followed by a conjugate incubation (3,000× diluted with conjugate buffer; 1 hour). Added 50 μl of substrate buffer+500 of substrate (1 tablet/5 ml substrate buffer) to each well. Incubated at 37° for 15 minutes. Immediately quenched with 5 μl of 1M sodium hydroxide/well. Read the plate at 405 nm. Determined net absorbance (A405) by subtracting background OD from sample OD (e.g., B4-A4 or E7-F7).
Calculated the undiluted tPA concentrations of each pooled sample from the standard curve. These represented the free fractions ([F]) of the sample dilutions after equilibrium incubation with fibrin. Obtained the bound concentrations ([B]) by subtracting the free values from the total tPA concentration of the starting dilutions. Prepared Scatchard plots by plotting [B] (x-axis) vs. B/F (y-axis). The slope=−Kassoc and the y-intercept=Kassoc[n], where [n] was the concentration of exposed tPA binding sites on the fibrin pads.
Dilutions of untreated, sham-treated (control) and PPACK-treated (tPA(P)) tPA, as well as tPA(P) conjugated to ELIP (tPA(P)-ELIP), were incubated on replicate fibrin pads, prepared in microplate wells according to a modification of the method of Edgell et al. (1996). Human thrombin was added to a solution of 0.5 mg/ml of human fibrinogen in 0.02M phosphate-buffered saline, pH 7.4 (PBS), to a final concentration of 0.125 IU thrombin/ml; 100 μl of this solution was immediately added to each well and incubated at 37° C. for 45 minutes, followed by overnight drying of the plate at 45° C. After incubation with 100 μl/well of 0.2% BSA in PBS for 1 hour, samples (100 μl/well) were incubated for 2 hours at 37° C. For thermodynamic analyses, this incubation was performed at three temperatures (5, 24 and 37° C.). In order to determine the concentration of free tPA remaining in solution after incubation of tPA with fibrin, from which the concentration of bound tPA could be calculated for Scatchard analysis, the contents of duplicate wells were recovered, pooled and subsequently assayed for immunoreactive tPA in a standard quantitative sandwich ELISA.
Briefly, Nunc MaxiSorp microtiter plates were coated with 5 μg/ml of a monoclonal anti-tPA capture antibody (Ab) in 0.05M sodium bicarbonate, pH 9.6, overnight at 4° C. All incubation volumes were 50 μl/well. One-half of wells were left uncoated for determination of nonspecific binding. After aspirating well contents, all wells were blocked with conjugate buffer (1% BSA in 0.05M Tris buffer, pH 8.0, with 0.02% sodium azide) for 1 hour. From this point, all incubations were at 37° C. Each incubation was followed by aspiration of well contents and washes (3×) with PBS-T (PBS with 0.05% Tween 20). […]
In general terms: ELISA stands for enzyme-linked immunosorbent assay.

As to “tPA(P): Human recombinant tPA (Activase®) irreversibly inhibited with D-phe-L-pro-L-arg-chloromethyl ketone (PPACK)”, the “ΔS°” value by setting is: (High affinity) −33.8 cal/mole°; (Low affinity) −9.93 cal/mole°. Also, the Kassoc is, setting by setting: (High affinity, 278 K) 4.67e+09 M⁻¹; (High affinity, 297 K) 5.04e+08 M⁻¹; (High affinity, 310 K) 7.65e+07 M⁻¹; (Low affinity, 278 K) 5.33e+08 M⁻¹; (Low affinity, 297 K) 1.2e+08 M⁻¹; (Low affinity, 310 K) 3.91e+07 M⁻¹. The “ΔG°” value (High affinity, 278 K) was -12.3 kcal/mol; the “ΔG°” value (High affinity, 297 K) was -11.8 kcal/mol; the “ΔG°” value (High affinity, 310 K) was -11.2 kcal/mol; the “ΔG°” value (Low affinity, 278 K) was -11.1 kcal/mol; the “ΔG°” value (Low affinity, 297 K) was -11.0 kcal/mol; the “ΔG°” value (Low affinity, 310 K) was -10.8 kcal/mol. The “ΔH°” value is -21.7 kcal/mol (High affinity) and -13.9 kcal/mol (Low affinity). Moreover, the Kd runs as follows: (S.E., n=3, read-out: High-Affinity KD @ 37° C.) 10.4 ± 1.4 nM; (abstract of Example 15, read-out: fibrin-binding KD, higher affinity, after PPACK inactivation) around 2 nM; (abstract of Example 15, read-out: fibrin-binding KD, lower affinity, after PPACK inactivation) 33 nM.

As to “tPA: Recombinant tissue-plasminogen activator (Activase®, Genentech Inc.), used as the thrombolytic agent [reference compound]”, the “other fibrin-binding affinity in the presence of 50 mM EACA” value (50 mM EACA) was “non-measurable level”. Besides, the Kd (50 mM EACA, read-out: remaining fibrin-binding affinity in the presence of 50 mM EACA) stood at 32.9 nM; the Kd (37° C., SE, n=3, read-out: High-affinity interaction dissociation constant (KD)) worked out at 5.81 ± 4.04 nM; the Kd (37° C., read-out: Low-affinity interaction KD) was 30.4 ± 14.7 nM; the Kd (Example 12, 37° C., PBS-T, read-out: higher affinity on Scatchard plot) stood at 3.19 nM; the Kd (Example 12, 37° C., PBS-T, read-out: lower affinity on Scatchard plot) turned out to be 28.3 nM. For the same substance, the “Kassoc 1” value (Example 12, 37° C.) amounted to 3.13e+08 M⁻¹. For the same substance, the “Kassoc 2” value (Example 12, 37° C.) was 3.53e+07 M⁻¹. Besides, the “High affinity (Scatchard plot)” value (representative plot, PBS-T, 37° C., r=0.883) came out at 2e+09 M⁻¹. Moreover, the “low affinity (Scatchard plot)” value (representative plot, PBS-T, 37° C., r=0.904) was found to be 1.95e+08 M⁻¹.
